Test results from US20120165267A1 (Genentech, published 2012).

B1: DR4-selective phage clone 8 (ligand)
chain: SEETISTVQEKQQNISPLVRERGPQRVAAHITGTRGRSNTLSSPNSKNEKALGRKINSWESSRSGHSFLSNLHLRNGELVIHEKGFYYIYSQTAFRFSEEIKEVTRNDKQMVQYIYKWTDYPDPILLMKSARNSCWSKDAEYGLYSIYQGGIFELKENDRIFVSVTNEHLIDMDHEASFFGAFLVG
notes: also called DR4-8
B2: DR4-selective phage clone 9 (ligand)
chain: SEETISTVQEKQQNISPLVRERGPQRVAAHITGTRGRSNTLSSPNSKNEKALGRKINSWESSRSGHSFLSNLHLRNGELVIHEKGFYYIYSQTAFRFSEEIKERTRNDKQMVQYIYKWTDYPDPILLMKSARNSCWSKDAEYGLYSIYQGGIFELKENDRIFVSVTNEHLIDMDHEASFFGAFLVG
notes: also called DR4-9

What was measured:
[1] = target: T1, DR5-IgG (human, UniProt O14763 56-184); experiment: spot ELISA, phage on coated protein
T1 construct: also called Apo-2-IgG; not shown: IgG part; prepared as in WO98/51793, not described here
T1 sequence (O14763 56-184): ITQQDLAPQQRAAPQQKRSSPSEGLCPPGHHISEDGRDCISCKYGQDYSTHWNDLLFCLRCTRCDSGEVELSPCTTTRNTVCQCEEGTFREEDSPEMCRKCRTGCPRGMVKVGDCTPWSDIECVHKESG

[2] = target: T2, BSA (UniProt P02769 25-607); experiment: spot ELISA, phage on coated protein
T2 construct: Control protein of the spot ELISA
T2 sequence (P02769 25-607 limits assumed): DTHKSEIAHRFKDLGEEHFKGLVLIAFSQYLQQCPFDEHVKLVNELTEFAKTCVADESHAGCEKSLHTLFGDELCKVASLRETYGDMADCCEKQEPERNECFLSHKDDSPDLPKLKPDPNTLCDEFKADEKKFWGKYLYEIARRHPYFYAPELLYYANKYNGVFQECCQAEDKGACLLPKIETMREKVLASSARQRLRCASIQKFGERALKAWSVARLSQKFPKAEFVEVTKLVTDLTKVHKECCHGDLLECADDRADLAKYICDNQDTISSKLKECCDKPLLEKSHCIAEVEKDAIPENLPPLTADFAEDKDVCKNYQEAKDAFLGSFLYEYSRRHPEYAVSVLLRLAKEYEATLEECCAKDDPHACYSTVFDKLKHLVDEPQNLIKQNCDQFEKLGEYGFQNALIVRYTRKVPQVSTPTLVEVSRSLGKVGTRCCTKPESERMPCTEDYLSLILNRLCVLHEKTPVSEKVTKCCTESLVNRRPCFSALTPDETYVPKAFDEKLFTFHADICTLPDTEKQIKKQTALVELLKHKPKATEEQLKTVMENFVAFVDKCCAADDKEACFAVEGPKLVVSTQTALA

| Binder | binding result [1] | binding result [2] |
| --- | --- | --- |
| B1 | no binding | no binding |
| B2 | no binding | no binding |
